Measurements published in patent US20190322750A1 (Y BIOLOGICS, published 2019).

Legend:
ITGA6 = target: T1, ITGA6; experiment: ELISA on coated antigen, column ITGA6
T1 construct: unrelated antigen column; all antibodies give 0.5 to 0.6
T1 sequence (P23229 whole entry, species assumed, looked up): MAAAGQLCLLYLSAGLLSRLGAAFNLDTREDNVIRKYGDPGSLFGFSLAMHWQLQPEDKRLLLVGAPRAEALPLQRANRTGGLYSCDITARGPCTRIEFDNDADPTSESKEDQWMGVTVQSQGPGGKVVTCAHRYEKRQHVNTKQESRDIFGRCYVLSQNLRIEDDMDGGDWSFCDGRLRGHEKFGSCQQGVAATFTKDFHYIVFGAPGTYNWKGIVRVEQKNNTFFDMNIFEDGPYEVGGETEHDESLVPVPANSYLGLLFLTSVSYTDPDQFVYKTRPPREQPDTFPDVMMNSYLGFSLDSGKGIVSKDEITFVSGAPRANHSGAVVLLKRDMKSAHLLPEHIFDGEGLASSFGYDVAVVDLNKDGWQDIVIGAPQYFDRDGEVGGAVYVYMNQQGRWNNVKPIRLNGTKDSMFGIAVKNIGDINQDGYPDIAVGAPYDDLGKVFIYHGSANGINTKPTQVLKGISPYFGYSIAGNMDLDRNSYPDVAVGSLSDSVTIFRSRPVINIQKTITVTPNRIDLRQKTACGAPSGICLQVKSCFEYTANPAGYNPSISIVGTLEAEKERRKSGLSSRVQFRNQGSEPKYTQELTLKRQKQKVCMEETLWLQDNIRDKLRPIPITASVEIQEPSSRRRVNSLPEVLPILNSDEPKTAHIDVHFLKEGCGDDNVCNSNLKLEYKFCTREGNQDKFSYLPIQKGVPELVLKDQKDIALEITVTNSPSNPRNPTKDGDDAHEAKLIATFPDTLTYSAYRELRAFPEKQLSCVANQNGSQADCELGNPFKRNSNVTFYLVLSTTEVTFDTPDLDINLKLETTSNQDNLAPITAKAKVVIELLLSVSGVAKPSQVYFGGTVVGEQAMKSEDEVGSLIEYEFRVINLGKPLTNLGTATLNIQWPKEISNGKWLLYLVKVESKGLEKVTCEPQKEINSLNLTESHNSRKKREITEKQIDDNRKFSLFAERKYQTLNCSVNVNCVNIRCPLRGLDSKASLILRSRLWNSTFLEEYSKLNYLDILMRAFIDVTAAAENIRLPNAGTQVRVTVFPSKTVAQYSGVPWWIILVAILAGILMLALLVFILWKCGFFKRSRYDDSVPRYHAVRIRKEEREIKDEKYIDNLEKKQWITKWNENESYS

M6 = experiment: ELISA on coated antigen, column M6
Method: (§1) An antigen PD-L1 wild type (WT) or several mutants were coated at a density of 100 ng/well on a 96-well immunoplate at 4° C. for 16 hours and the wells were blocked with 4% skim milk dissolved in PBS. Each well was washed with 0.2 ml of PBS/T, and then a single clone scFv-phage (each […]) cultured for 16 hours was added in a dose of 100 μl to each well and reacted at room temperature for 2 hours. Again, each well was washed 4 times with 0.2 ml of PBS/T, and then the second antibody, anti-Fab, was diluted to 1/2000 and reacted at room temperature for 1 hour. After washing with 0.2 ml of PBS/T, color development was performed and absorbance was measured at 490 nm.

M1 = experiment: ELISA on coated antigen, column M1
Method: as §1

M7 = experiment: ELISA on coated antigen, column M7
PD-L1-hFc [1] = target: T2, PD-L1-hFc (human, UniProt Q9NZQ7 19-238); experiment: kinetics on PD-L1-hFc (legend paragraph 40; text names ProteOn XPR36, the sheet's sensorgrams have a nm axis)
T2 construct: extracellular domain; Made in HEK-293F cells, protein A purified; also called PD-L1 antigen; PD-L1 protein

M2 = experiment: ELISA on coated antigen, column M2
Method: as §1

M3 = experiment: ELISA on coated antigen, column M3
PD-L1-hFc [2] = target: T2, PD-L1-hFc; experiment: SPR (ProteOn XPR36), PD-L1-hFc immobilised on GLC chip, antibody 30 nM to 0.123 nM as analyte
Method: A ProteOn XPR36 (BioRad) instrument was used. The GLC sensor chip (BioRad) was mounted on the instrument and washed with PBST buffer, and the carboxymethyldextran surface was activated with an EDC/sulfo-NHS mixed solution. PD-L1-hFc dissolved at a concentration of 5 ug/ml in a 10 mM sodium acetate buffer solution (pH 5.0) was injected and immobilized on the GLC sensor chip.
In order to deactivate the activated carboxyl groups that remain unreacted with the PD-L1 protein, 1 M ethanolamine was flowed and 10 mM glycine (pH 2.0) was injected in order to wash proteins that remain unbound to the sensor chip.
The equilibrium dissociation constant (KD) was calculated by plotting and fitting the sensogram data in the equilibrium state depending on concentration.

M5 = experiment: ELISA on coated antigen, column M5
Method: as §1

[3] = target: T3, human PD-L1 over-expressed on HEK293E cells (human, UniProt Q9NZQ7 19-290); experiment: flow cytometry (Geometric Mean) on HEK293E cells over-expressing human PD-L1, serial dilution
T3 construct: whole, on cells; also called human PD-L1 (NM_014143.2)
Method: Then, the cells were washed three times with PBS (#LB001-02, Welgene) containing 2% fetal bovine serum and reacted at 4° C. for 20 minutes with an anti-human IgG antibody (#FI-3000, Vectorlabs) conjugated with a FITC (fluorescein isothiocyanate) fluorescent substance. Then, the cells were subjected to the same washing process as above and then suspended in 0.5 ml of PBS containing 2% FBS (#26140-079, Thermo Fisher) with an FACSCanto II flow cytometer (BD Biosciences, USA) as a flow cytometer.

M8 = experiment: ELISA on coated antigen, column M8
Method: as §1

[4] = target: PD-L1 on CHO cell line highly expressing PD-L1 (PD-1/PD-L1 blockade bioassay kit, promega J1250) (UniProt Q9NZQ7 19-290, limits assumed); experiment: cell-based or functional assay
M4 = experiment: ELISA on coated antigen, column M4
Method: as §1

WT = target: T4, WT (human, UniProt Q9NZQ7); experiment: ELISA on coated antigen, column WT
T4 construct: recombinant; also called hPD-L1; antigen PD-L1 wild type (WT)
Method: as §1

T2 sequence (Q9NZQ7 other isoform, or with tags, fused parts or gaps limits assumed): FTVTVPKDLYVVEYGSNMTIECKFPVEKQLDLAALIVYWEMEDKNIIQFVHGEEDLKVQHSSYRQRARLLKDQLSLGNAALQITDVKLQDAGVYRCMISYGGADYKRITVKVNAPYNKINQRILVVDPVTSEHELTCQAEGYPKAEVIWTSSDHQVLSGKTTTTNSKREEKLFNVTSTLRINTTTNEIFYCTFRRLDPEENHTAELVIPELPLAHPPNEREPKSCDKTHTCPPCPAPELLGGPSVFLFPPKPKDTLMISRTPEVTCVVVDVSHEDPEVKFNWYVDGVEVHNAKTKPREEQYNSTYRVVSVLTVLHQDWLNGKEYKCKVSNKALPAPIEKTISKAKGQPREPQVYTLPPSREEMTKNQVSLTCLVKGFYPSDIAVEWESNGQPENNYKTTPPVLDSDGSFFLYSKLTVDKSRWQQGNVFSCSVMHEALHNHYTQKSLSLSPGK
T3 sequence (Q9NZQ7 19-290): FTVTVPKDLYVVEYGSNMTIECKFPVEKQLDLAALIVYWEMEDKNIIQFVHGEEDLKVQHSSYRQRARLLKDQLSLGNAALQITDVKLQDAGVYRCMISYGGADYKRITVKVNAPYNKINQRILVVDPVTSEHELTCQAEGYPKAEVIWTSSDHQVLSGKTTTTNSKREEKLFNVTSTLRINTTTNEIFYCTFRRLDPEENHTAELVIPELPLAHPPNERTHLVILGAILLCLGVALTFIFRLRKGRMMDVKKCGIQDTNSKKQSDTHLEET
Chain of PD-L1 on CHO cell line highly expressing PD-L1 (PD-1/PD-L1 blockade bioassay kit, promega J1250) (Q9NZQ7 19-290 limits assumed): as the sequence (Q9NZQ7 19-290) above
T4 sequence (Q9NZQ7 19-238 limits assumed): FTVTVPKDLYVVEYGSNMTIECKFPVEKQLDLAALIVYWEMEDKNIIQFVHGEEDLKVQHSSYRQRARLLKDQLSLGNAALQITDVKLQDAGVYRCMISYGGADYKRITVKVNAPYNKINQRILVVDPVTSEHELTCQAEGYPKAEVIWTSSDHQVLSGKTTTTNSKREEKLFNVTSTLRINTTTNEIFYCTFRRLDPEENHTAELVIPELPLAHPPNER

B1: PDL1-16E12 (antibody, V domains shown)
VH: QMQLVQSGAEVKKPGSSVKVSCKASGGTFSSYAISWVRQAPGQGLEWMGRIIPILGIANYAQKFQGRVTITADKSTSTAYMELSSLRSEDTAVYYCAKPRDGYNLVAFDIWGQGTMVTVSS
VL: QLVLTQPPSVSGAPGQTVTISCTGSSSNIGAGYDVHWYQQLPGTAPKLLIYGNNNRPSGVPDRFSGSKSGALASLAITGLQAEDGADYHCQSYDNSLSAHAVFGTGTKVTVL
notes: Only FR/CDR pieces are tied to the clone; also called parent antibody
For B1, the “absorbance at 490 nm” value (ITGA6) was 0.5, the “absorbance at 490 nm” value (M6) was 2.5 and the “absorbance at 490 nm” value (M1) was 2.4. For the same binder, the “absorbance at 490 nm” value (M7) was 2.5, the Kd (PD-L1-hFc [1]) was 0.043 nM and the koff (PD-L1-hFc [1]) was 1.43e-05 s⁻¹. For the same binder, the kon (PD-L1-hFc [1]) was 334000 M⁻¹ s⁻¹, the “absorbance at 490 nm” value (M2) was 2.3 and the “absorbance at 490 nm” value (M3) was 0.9. For the same binder, the Kd (PD-L1-hFc [2]) was 0.045 nM, the “absorbance at 490 nm” value (M5) was 2.4 and the EC50 [3] was 1.72 nM. The “absorbance at 490 nm” value (M8) was 2.6, the EC50 [4] was 0.909 nM and the “absorbance at 490 nm” value (M4) was 0.4. The “absorbance at 490 nm” value (WT) was 2.5.
